{
  "source": "patent US20100167390",
  "about": "“Novel Oligonucleotide and NF-kB Decoy Comprising the Same” (published 2010)",
  "key": {"NF-kB p52 (NFKB2)": {"molecular_target": "T1, NF-kB p52 (NFKB2) (UniProt Q00653 Q00653:1-454)", "T1 sequence": "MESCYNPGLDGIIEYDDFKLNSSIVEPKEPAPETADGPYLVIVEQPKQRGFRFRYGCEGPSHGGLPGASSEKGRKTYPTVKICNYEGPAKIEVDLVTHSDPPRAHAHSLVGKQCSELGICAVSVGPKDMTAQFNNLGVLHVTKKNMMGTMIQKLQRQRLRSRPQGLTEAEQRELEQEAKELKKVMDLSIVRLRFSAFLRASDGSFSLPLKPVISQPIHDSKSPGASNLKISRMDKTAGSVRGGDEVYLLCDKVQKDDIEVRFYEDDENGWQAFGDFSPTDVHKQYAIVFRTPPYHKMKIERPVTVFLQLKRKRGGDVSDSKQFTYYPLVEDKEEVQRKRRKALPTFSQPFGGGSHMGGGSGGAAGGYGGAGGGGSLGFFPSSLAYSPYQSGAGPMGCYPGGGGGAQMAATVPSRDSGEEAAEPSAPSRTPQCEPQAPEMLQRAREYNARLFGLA", "assay": "competition", "conditions": "protein: extract; tags: Raji nuclear extract, Active Motif", "experimental": "(§1) The study was carried out in basically the same manner as in the above-described primary screening. The activities to inhibit the binding of various NF-κB family proteins to the consensus NF-κB binding site were compared under the conditions of common ratio of 3-fold, 6 times, n=2. As a control for comparison, fully phosphorothioated decoy oligonucleotide […] (SEQ ID NO:103) was used. The binding inhibition tests against various NF-κB family proteins were conducted using NF-κB Family TransAM Kit (ACTIVE MOTIF), and using NF-κB molecules in the Jurkat, TPA and CI-Stimulated, Nuclear Extract (ACTIVE MOTIF) for p50, and using NF-κB molecules in the Raji nuclear extract (ACTIVE MOTIF) for Rel-B and p52. As the primary antibodies, anti-NF-κB p50 antibody, anti-NF-κB p52 antibody and anti-Rel-B antibody were used, respectively, and the secondary antibody was HRP-labeled anti-rabbit IgG antibody in all cases.\n(§2) More concretely, the above-described measurements were carried out as follows: Each oligonucleotide solution was serially diluted with Complete Binding Buffer to prepare test samples. Each of the test samples was added to the wells in an amount of 30 μL per well, and Complete Binding Buffer was added to the wells of the control and blank. Nuclear extract diluted with Complete Lysis Buffer was added to the wells in an amount of 20 μL per well, and Complete Lysis Buffer was added to the wells of blank. After incubation for 1 hour with shaking, each well was washed with 1× Wash Buffer, and the primary antibody was added, followed by incubation for 1 hour. Each well was washed with 1× Wash Buffer, and the secondary antibody was added, followed by incubation for 1 hour. Each well was washed with 1× Wash Buffer, and the Developing Solution was added. After allowing coloration for 10 minutes, the Stop Solution was added to stop the reaction, and the absorbances at 450 nm and 630 nm were measured.\n(§3) The absorbance at 630 nm was subtracted from the absorbance at 450 nm and the mean value of the blanks was further subtracted from the resultant, and the percentage of the mean value of each concentration based on the mean value of the controls was calculated."}, "NF-kB p50 (NFKB1)": {"molecular_target": "NF-kB p50 (NFKB1) (UniProt P19838 P19838:1-433)", "sequence (P19838 1-433, one chain of several)": "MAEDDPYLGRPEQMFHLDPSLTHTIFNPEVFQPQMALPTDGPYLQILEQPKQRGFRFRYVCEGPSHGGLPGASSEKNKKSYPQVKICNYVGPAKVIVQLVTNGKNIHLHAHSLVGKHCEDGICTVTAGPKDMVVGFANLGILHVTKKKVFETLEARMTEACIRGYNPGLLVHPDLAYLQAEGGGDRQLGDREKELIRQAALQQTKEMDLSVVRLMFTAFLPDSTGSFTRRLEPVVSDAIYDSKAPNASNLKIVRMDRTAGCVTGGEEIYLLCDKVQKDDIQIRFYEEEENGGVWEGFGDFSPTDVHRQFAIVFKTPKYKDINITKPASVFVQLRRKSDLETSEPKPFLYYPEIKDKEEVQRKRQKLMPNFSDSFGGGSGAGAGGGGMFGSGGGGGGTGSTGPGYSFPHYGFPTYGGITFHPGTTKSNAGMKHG", "assay": "competition", "conditions": "protein: extract; tags: TPA and CI-stimulated Jurkat nuclear extract, Active Motif", "experimental": "as §1, §2, §3"}, "NF-kB p65 (RelA) [1]": {"molecular_target": "T2, NF-kB p65 (RelA) (UniProt Q04206 Q04206:1-551)", "T2 sequence (Q04206 whole entry, one chain of several)": "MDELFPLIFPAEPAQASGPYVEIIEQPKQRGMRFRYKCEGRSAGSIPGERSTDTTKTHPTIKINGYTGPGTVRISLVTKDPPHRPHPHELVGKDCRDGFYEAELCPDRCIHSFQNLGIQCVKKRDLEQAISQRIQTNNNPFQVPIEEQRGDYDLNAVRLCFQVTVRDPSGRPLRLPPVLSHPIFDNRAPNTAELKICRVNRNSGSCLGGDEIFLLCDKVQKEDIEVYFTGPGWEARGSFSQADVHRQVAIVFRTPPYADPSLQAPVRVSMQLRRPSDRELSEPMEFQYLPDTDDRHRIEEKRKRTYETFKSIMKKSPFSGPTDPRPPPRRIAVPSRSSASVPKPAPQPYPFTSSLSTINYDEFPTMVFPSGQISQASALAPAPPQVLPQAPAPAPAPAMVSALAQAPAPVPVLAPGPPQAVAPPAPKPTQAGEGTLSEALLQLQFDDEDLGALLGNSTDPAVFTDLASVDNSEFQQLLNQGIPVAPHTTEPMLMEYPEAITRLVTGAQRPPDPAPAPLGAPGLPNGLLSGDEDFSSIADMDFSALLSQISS", "assay": "competition", "conditions": "protein: extract; tags: TPA and CI-stimulated Jurkat nuclear extract, Active Motif TransAM kit", "experimental": "The binding capacity of each SODN to NF-κB was evaluated by measuring the remaining free NF-κB after reacting each SODN with NF-κB (p65), using a commercially available kit (TransAM Kit (NF-κB, p65, ACTIVE MOTIF) for measuring NF-κB, and using NF-κB molecules in the Jurkat, TPA and CI-Stimulated, Nuclear Extract (nuclear extract of Jurkat cells stimulated with a phorbol ester (TPA) and a calcium ionophore (CI)). The measurement was performed in accordance with the instructions attached to the kit. The kit was made for quantifying the NF-κB bound to the solid phase by ELISA after adding an NF-κB solution to the wells in which the NF-κB (p65 protein) consensus binding sequence was immobilized and after washing the resultant. By this measurement method, the higher the binding capacity of the oligonucleotide to the NF-κB, the smaller amount of the NF-κB quantified by the ELISA.\nMore concretely, the above-described measurement was carried out as follows concretely: Each SODN solution was serially diluted with Complete Binding Buffer contained in the kit to prepare test samples (common ratio: 3-fold, 4 times, n=3). To each well, 30 μL of the test sample was added. To the wells of the control and blank, Complete Binding Buffer was added. To each well, 20 μL of the Jurkat, TPA and CI-Stimulated, Nuclear Extract contained in the kit, after dilution with Complete Lysis Buffer to a concentration of 125 μg/mL, was added. To the wells of the blank, Complete Lysis Buffer was added. After incubation for 1 hour with shaking, each well was washed with 1× Wash Buffer contained in the kit, and an anti-NF-κB (p65 protein) antibody was added, followed by incubation for 1 hour. Each well was washed with 1× Wash Buffer, and the Developing Solution contained in the kit was added. After allowing coloration for 10 minutes, the Stop Solution was added to stop the reaction, and the absorbances at 450 nm and 630 nm were measured.\nThe binding capacities of the partially phosphorothioated oligonucleotides (the bonds between only all of the nucleotides constituting the consensus sequence in both strands are phosphorothioated, hereinafter also referred to as “PSODN”) of SODNs 7, 8, 9, 16, 17 and 30 of the present invention to the NF-κB (p65 protein) were tested in the same manner as described above."}, "NF-kB p65 (RelA) [2]": {"molecular_target": "T2, NF-kB p65 (RelA)", "assay": "competition; primary screen 1.33", "conditions": "protein: extract; tags: TPA and CI-stimulated Jurkat nuclear extract, Active Motif TransAM kit", "experimental": "(§4) The measurement was performed in accordance with the instructions attached to the kit. The kit was made for quantifying the NF-κB bound to the solid phase by ELISA after adding an NF-κB solution to the wells in which the NF-κB (p65 protein) consensus binding sequence was immobilized and after washing the resultant. By this measurement method, the higher the binding capacity of the oligonucleotide to the NF-κB, the smaller amount of the NF-κB quantified by the ELISA.\n(§5) More concretely, the above-described measurement was carried out as follows concretely: Each SODN solution was serially diluted with Complete Binding Buffer contained in the kit to prepare test samples (common ratio: 3-fold, 4 times, n=3). […] After allowing coloration for 10 minutes, the Stop Solution was added to stop the reaction, and the absorbances at 450 nm and 630 nm were measured.\n(§6) The absorbance at 630 nm was subtracted from the absorbance at 450 nm and the mean value of the blanks was further subtracted from the resultant, and the percentage of the mean value of each concentration based on the mean value of the controls was calculated. The concentration at which the calculated value was 50% (i.e., at which the binding was inhibited by 50%) was calculated from the regression lines between two points interposing 50% (an analysis software Graph Pad PRISM 4, GraphPad SOFTWARE was used). […]"}, "NF-kB p65 (RelA) [3]": {"molecular_target": "T2, NF-kB p65 (RelA)", "assay": "competition; primary screen 1.37", "conditions": "protein: extract; tags: TPA and CI-stimulated Jurkat nuclear extract, Active Motif TransAM kit", "experimental": "as §4, §5, §6"}, "NF-kB p65 (RelA) [4]": {"molecular_target": "T2, NF-kB p65 (RelA)", "assay": "competition; primary screen 1.31", "conditions": "protein: extract; tags: TPA and CI-stimulated Jurkat nuclear extract, Active Motif TransAM kit", "experimental": "as §4, §5, §6"}, "NF-kB p65 (RelA) [5]": {"molecular_target": "T2, NF-kB p65 (RelA)", "assay": "competition; primary screen 1.61", "conditions": "protein: extract; tags: TPA and CI-stimulated Jurkat nuclear extract, Active Motif TransAM kit", "experimental": "as §4, §5, §6"}},
  "data": [
    {"binder": "PSODN16 (dsDNA, PS only within consensus gggatttccc, both strands) DNA 1: CGCAGGGATTTCCCGCG DNA 2: CGCGGGAAATCCCTGCG", "values": [
      {"measurement": "IC50", "setting": "NF-kB p52 (NFKB2)", "value": 2.37, "unit": "nM"},
      {"measurement": "IC50", "setting": "NF-kB p50 (NFKB1)", "value": 0.8, "unit": "nM"},
      {"measurement": "IC50", "setting": "NF-kB p65 (RelA) [1]", "value": 0.41, "unit": "nM"}
    ]},
    {"binder": "PSODN17 (dsDNA, PS only within consensus gggatttccc, both strands) DNA 1: CCCTGGGATTTCCCGCC DNA 2: GGCGGGAAATCCCAGGG", "values": [
      {"measurement": "IC50", "setting": "NF-kB p52 (NFKB2)", "value": 4.29, "unit": "nM"},
      {"measurement": "IC50", "setting": "NF-kB p50 (NFKB1)", "value": 0.91, "unit": "nM"},
      {"measurement": "IC50", "setting": "NF-kB p65 (RelA) [1]", "value": 0.48, "unit": "nM"}
    ]},
    {"binder": "SODN30 (dsDNA, PS all bonds, both strands) DNA 1: GGCTGGGATTTCCCGCGG DNA 2: CCGCGGGAAATCCCAGCC", "values": [
      {"measurement": "IC50", "setting": "NF-kB p65 (RelA) [2]", "value": 1.87, "unit": "nM"}
    ]},
    {"binder": "SODN16 (dsDNA, PS all bonds, both strands) DNA 1: CGCAGGGATTTCCCGCG DNA 2: CGCGGGAAATCCCTGCG", "values": [
      {"measurement": "IC50", "setting": "NF-kB p65 (RelA) [3]", "value": 1.98, "unit": "nM"}
    ]},
    {"binder": "PSODN9 (dsDNA, PS only within consensus gggatttccc, both strands) DNA 1: GGAGGGATTTCCCGGG DNA 2: CCCGGGAAATCCCTCC", "values": [
      {"measurement": "IC50", "setting": "NF-kB p52 (NFKB2)", "value": 1.55, "unit": "nM"},
      {"measurement": "IC50", "setting": "NF-kB p50 (NFKB1)", "value": 0.91, "unit": "nM"},
      {"measurement": "IC50", "setting": "NF-kB p65 (RelA) [1]", "value": 0.54, "unit": "nM"}
    ]},
    {"binder": "SODN17 (dsDNA, PS all bonds, both strands) DNA 1: CCCTGGGATTTCCCGCC DNA 2: GGCGGGAAATCCCAGGG", "values": [
      {"measurement": "IC50", "setting": "NF-kB p65 (RelA) [4]", "value": 1.81, "unit": "nM"}
    ]},
    {"binder": "SODN7 (dsDNA, PS all bonds, both strands) DNA 1: CGCGGGATTTCCCAGC DNA 2: GCTGGGAAATCCCGCG", "values": [
      {"measurement": "IC50", "setting": "NF-kB p65 (RelA) [5]", "value": 1.75, "unit": "nM"}
    ]},
    {"binder": "PSODN30 (dsDNA, PS only within consensus gggatttccc, both strands) DNA 1: GGCTGGGATTTCCCGCGG DNA 2: CCGCGGGAAATCCCAGCC", "values": [
      {"measurement": "IC50", "setting": "NF-kB p52 (NFKB2)", "value": 2.11, "unit": "nM"},
      {"measurement": "IC50", "setting": "NF-kB p50 (NFKB1)", "value": 0.69, "unit": "nM"},
      {"measurement": "IC50", "setting": "NF-kB p65 (RelA) [1]", "value": 0.48, "unit": "nM"}
    ]},
    {"binder": "SODN6 (dsDNA, PS all bonds, both strands) DNA 1: CGAGGGATTTCCCGGC DNA 2: GCCGGGAAATCCCTCG", "values": [
      {"measurement": "IC50", "setting": "NF-kB p65 (RelA) [4]", "value": 2.33, "unit": "nM"}
    ]}
  ]
}
